± gives the standard deviation of the averaged measurements.
B1: library; a variant is named by its letters at N, in order (parent)
chain: GCUGUCACCGAGAAACUGUGAAGUAUAUCUUAAACCUGGGCACUUAAAAGAUAUAUGGAGUUAGUAGUGCAACCUGCUCGGUCUGAUGAGUCCNNNNNNGGACGAAACAGC

How the values were obtained:
cyclic di-GMP [1] = variants of: B1; experiment: normalized RNA/DNA level without ligand (relative to sTRSVctl = 100) (log10 (% of sTRSVctl)); HEK293T; ligand: cyclic di-GMP (c-di-GMP-II aptamer); higher = less ribozyme self-cleavage, higher mRNA level; settings: reporter: mCherry (pCS4076), ligand present: no
Method in brief: (§1)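 HEK293T cells were transfected with library plasmids carrying ribozyme switches linked to an mCherry reporter, or an eGFP reporter in some ligand experiments, at 4 µg per well of a 6-well plate, with any ligand added 1 h beforehand. After 72 h, total RNA was extracted with EDTA, reverse-transcribed, amplified, barcoded and sequenced. RNA level was defined as RNA reads over DNA reads, normalized to a spiked-in non-cleaving sequence or to the top-ranked sequences. That value was multiplied by 100 and converted to log10, the top set was 25 sequences, and only sequences with ≥100 DNA reads were retained.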

cyclic di-GMP [2] = variants of: B1; experiment: normalized RNA/DNA level with ligand (relative to sTRSVctl = 100) (log10 (% of sTRSVctl)); HEK293T; ligand: cyclic di-GMP (c-di-GMP-II aptamer); ligand concentration (+) RNA-Seq: 1 mM; higher = less ribozyme self-cleavage, higher mRNA level; settings: reporter: mCherry (pCS4076), ligand present: yes
Method in brief: as §1

| Variant | normalized RNA/DNA level without ligand (log10) (cyclic di-GMP [1]) | normalized RNA/DNA level with ligand (log10) (cyclic di-GMP [2]) |
| --- | --- | --- |
| ACAUUU | 1.42 ± 0.05 | 1.67 ± 0.11 |
| GAUCGG | 1.747 ± 0.013 | 1.82 ± 0.034 |
| GCCUAC | 1.55 ± 0.059 | 1.72 ± 0.047 |
| GCUACC | 1.67 ± 0.065 | 1.84 ± 0.098 |
| UAGUGC | 1.69 ± 0.024 | 1.82 ± 0.13 |
| CAGCGG | 1.78 ± 0.032 | 1.9 ± 0.14 |
| CGUACG | 1.777 ± 0.013 | 1.857 ± 0.017 |
| GGUUUA | 1.582 ± 0.0053 | 1.79 ± 0.099 |
| UAUCUA | 1.683 ± 0.0069 | 1.81 ± 0.097 |
| CUGUGA | 1.54 ± 0.075 | 1.77 ± 0.081 |
| CGGUUU | 1.6584 ± 0.0015 | 1.75 ± 0.1 |
| CGGUUC | 1.55 ± 0.028 | 1.75 ± 0.069 |
| CAAACG | 1.776 ± 0.013 | 1.84 ± 0.059 |
| UUAUGC | 1.73 ± 0.012 | 1.81 ± 0.1 |
| CAGGUU | 1.798 ± 0.0047 | 1.88 ± 0.053 |
| GACCAG | 1.82 ± 0.088 | 1.91 ± 0.13 |
| GACCAA | 1.52 ± 0.083 | 1.71 ± 0.065 |
| CCAGGU | 1.69 ± 0.061 | 1.82 ± 0.081 |
| AGUGGA | 1.44 ± 0.11 | 1.62 ± 0.086 |
| UUCGAC | 1.659 ± 0.0063 | 1.79 ± 0.12 |
| AUACGG | 1.58 ± 0.093 | 1.74 ± 0.056 |
| AAAAGU | 1.52 ± 0.071 | 1.71 ± 0.057 |
| GGCAAU | 1.65 ± 0.1 | 1.75 ± 0.13 |

| Variant | normalized RNA/DNA level without ligand (log10) (cyclic di-GMP [1]) | normalized RNA/DNA level with ligand (log10) (cyclic di-GMP [2]) |
| --- | --- | --- |
| CAGUAC | 1.6 ± 0.018 | 1.74 ± 0.14 |
| CGACAU | 1.43 ± 0.16 | 1.63 ± 0.12 |
| CCCGCG | 1.79 ± 0.046 | 1.9 ± 0.044 |
| CCCGCU | 1.74 ± 0.024 | 1.88 ± 0.11 |
| CCCUGG | 1.74 ± 0.022 | 1.85 ± 0.03 |
| AGGGUG | 1.64 ± 0.046 | 1.7 ± 0.12 |
| AGGGUA | 1.53 ± 0.035 | 1.6 ± 0.12 |
| CCACAA | 1.51 ± 0.032 | 1.7 ± 0.11 |
| GAUUGU | 1.65 ± 0.037 | 1.82 ± 0.09 |
| CAACGU | 1.67 ± 0.025 | 1.82 ± 0.096 |
| GGUUGA | 1.57 ± 0.15 | 1.74 ± 0.035 |
| AUACCU | 1.7 ± 0.054 | 1.85 ± 0.046 |
| GUUCCC | 1.8 ± 0.021 | 1.9 ± 0.13 |
| UGUAUC | 1.734 ± 0.0024 | 1.87 ± 0.11 |
| UAAACU | 1.71 ± 0.061 | 1.85 ± 0.15 |
| AUGGUC | 1.67 ± 0.018 | 1.81 ± 0.1 |
| CAACUA | 1.39 ± 0.069 | 1.6 ± 0.15 |
| AUUGUC | 1.73 ± 0.053 | 1.85 ± 0.15 |
| CAUGUU | 1.72 ± 0.043 | 1.88 ± 0.085 |
| AUCAAG | 1.57 ± 0.1 | 1.76 ± 0.062 |
| CAGGGG | 1.63 ± 0.032 | 1.74 ± 0.075 |
| UCUUAU | 1.683 ± 0.012 | 1.85 ± 0.14 |
| GUGAGC | 1.51 ± 0.086 | 1.77 ± 0.041 |

| Variant | normalized RNA/DNA level without ligand (log10) (cyclic di-GMP [1]) | normalized RNA/DNA level with ligand (log10) (cyclic di-GMP [2]) |
| --- | --- | --- |
| ACUCCU | 1.72 ± 0.051 | 1.9 ± 0.1 |
| ACGUCU | 1.55 ± 0.087 | 1.74 ± 0.085 |
| UAUUAU | 1.682 ± 0.011 | 1.82 ± 0.14 |
| GCGGGC | 1.53 ± 0.028 | 1.69 ± 0.064 |
| GGCUGG | 1.746 ± 0.013 | 1.82 ± 0.092 |
| GUACUC | 1.54 ± 0.099 | 1.75 ± 0.041 |
| UGUUAA | 1.693 ± 0.01 | 1.85 ± 0.09 |
| CAUGCA | 1.52 ± 0.05 | 1.66 ± 0.067 |
| GUUACC | 1.79 ± 0.059 | 1.9 ± 0.1 |
| AUCGGC | 1.78 ± 0.033 | 1.87 ± 0.16 |
| AUCGGG | 1.67 ± 0.069 | 1.81 ± 0.12 |
| GGCCAU | 1.73 ± 0.03 | 1.84 ± 0.1 |
| CCGCCG | 1.738 ± 0.01 | 1.82 ± 0.1 |
| UUGUCA | 1.77 ± 0.045 | 1.9 ± 0.1 |
| GUAAGC | 1.58 ± 0.028 | 1.76 ± 0.16 |
| UAAUCC | 1.8 ± 0.031 | 1.89 ± 0.077 |
| GUGGCA | 1.81 ± 0.027 | 1.91 ± 0.097 |
| UUCCAA | 1.7 ± 0.037 | 1.84 ± 0.13 |
| CUCGAG | 1.71 ± 0.034 | 1.86 ± 0.11 |
| CUCGAC | 1.714 ± 0.0032 | 1.85 ± 0.069 |
| UCAGAC | 1.63 ± 0.017 | 1.76 ± 0.13 |
| UCAAGC | 1.63 ± 0.031 | 1.76 ± 0.1 |
| UCCUAC | 1.75 ± 0.04 | 1.87 ± 0.14 |

| Variant | normalized RNA/DNA level without ligand (log10) (cyclic di-GMP [1]) | normalized RNA/DNA level with ligand (log10) (cyclic di-GMP [2]) |
| --- | --- | --- |
| UCUGCA | 1.748 ± 0.0085 | 1.85 ± 0.13 |
| UAUAAU | 1.66 ± 0.063 | 1.8 ± 0.099 |
| UUUAGC | 1.76 ± 0.054 | 1.86 ± 0.14 |
| UUCAGC | 1.78 ± 0.082 | 1.9 ± 0.13 |
| AGUAUU | 1.68 ± 0.037 | 1.83 ± 0.1 |
| AUUCGU | 1.79 ± 0.024 | 1.86 ± 0.12 |
| ACACUU | 1.47 ± 0.091 | 1.72 ± 0.092 |
| UGGCAG | 1.847 ± 0.0028 | 1.93 ± 0.063 |
| UAACCC | 1.77 ± 0.021 | 1.9 ± 0.08 |
| UAGAAG | 1.61 ± 0.027 | 1.8 ± 0.11 |
| CUAGUG | 1.529 ± 0.0021 | 1.69 ± 0.12 |
| AUGUAG | 1.59 ± 0.017 | 1.77 ± 0.11 |
| CGGGAC | 1.669 ± 0.012 | 1.79 ± 0.085 |
| GCUCGG | 1.78 ± 0.018 | 1.88 ± 0.052 |
| CUUGCU | 1.76 ± 0.021 | 1.86 ± 0.12 |
| AUUUUA | 1.62 ± 0.032 | 1.8 ± 0.13 |
| GCGUUG | 1.56 ± 0.042 | 1.75 ± 0.11 |
| CAAAGG | 1.59 ± 0.033 | 1.75 ± 0.081 |
| CCGGCA | 1.7 ± 0.026 | 1.79 ± 0.12 |
| UUGUUU | 1.78 ± 0.041 | 1.92 ± 0.085 |
| CCACGU | 1.64 ± 0.046 | 1.81 ± 0.13 |
| CUGAGG | 1.73 ± 0.031 | 1.88 ± 0.16 |
| CGUAAC | 1.557 ± 0.0076 | 1.72 ± 0.091 |

| Variant | normalized RNA/DNA level without ligand (log10) (cyclic di-GMP [1]) | normalized RNA/DNA level with ligand (log10) (cyclic di-GMP [2]) |
| --- | --- | --- |
| CGGUGC | 1.785 ± 0.007 | 1.9 ± 0.12 |
| GCUCAG | 1.79 ± 0.081 | 1.87 ± 0.15 |
| CUGCAG | 1.73 ± 0.075 | 1.88 ± 0.11 |
| UUUAUG | 1.707 ± 0.0064 | 1.84 ± 0.11 |
| UGGAGA | 1.58 ± 0.082 | 1.76 ± 0.069 |
| GUCUCC | 1.82 ± 0.041 | 1.89 ± 0.15 |
| CAACCC | 1.719 ± 0.015 | 1.82 ± 0.12 |
| AUUGGC | 1.67 ± 0.017 | 1.83 ± 0.076 |
| CACCUC | 1.704 ± 0.014 | 1.87 ± 0.098 |
| GGGAAC | 1.68 ± 0.031 | 1.84 ± 0.057 |
| ACGGGG | 1.693 ± 0.015 | 1.82 ± 0.1 |
| GUCUAU | 1.64 ± 0.045 | 1.78 ± 0.14 |
| GCAUCC | 1.65 ± 0.077 | 1.82 ± 0.052 |
| AGGAUU | 1.49 ± 0.032 | 1.73 ± 0.12 |
| AAUCUG | 1.62 ± 0.031 | 1.8 ± 0.061 |
| UCUCUA | 1.666 ± 0.0017 | 1.82 ± 0.12 |
| GACGUG | 1.71 ± 0.052 | 1.83 ± 0.11 |
| CUUUAC | 1.73 ± 0.019 | 1.84 ± 0.1 |
| UACUGG | 1.731 ± 0.015 | 1.85 ± 0.12 |
| UACUGA | 1.66 ± 0.044 | 1.82 ± 0.11 |
| GAAUAC | 1.62 ± 0.026 | 1.78 ± 0.095 |
| AGGUGC | 1.75 ± 0.037 | 1.82 ± 0.11 |
| AUGGCC | 1.78 ± 0.024 | 1.9 ± 0.13 |

Source: the supplement of paper PMC6757056
